The results in this text go back to publication PMC7092940 (2005).

The series concerns the molecule itself.

B1: SARS 3CL proteinase (protein)
chain: SGFRKMAFPSGKVEGCMVQVTCGTTTLNGLWLDDTVYCPRHVICTAEDMLNPNYEDLLIRKSNHSFLVQAGNVQLRVIGHSMQNCLLRLKVDTSNPKTPKYKFVRIQPGQTFSVLACYNGSPSGVYQCAMRPNHTIKGSFLNGSCGSVGFNIDYDCVSFCYMHHMELPTGVHAGTDLEGKFYGPFVDRQTAQAAGTDTTITLNVLAWLYAAVINGDRWFLNRFTTTLNDFNLVAMKYNYEPLTQDHVDILGPLSAQTGIAVLDMCAALKELLQNGMNGRTILGSTILEDEFTPFDVVRQCSGVTFQ
By Kd is commonly meant the free concentration of one partner at which half of the binding sites on the other are occupied at equilibrium, for simple one-to-one binding. B1 came in with a Kd of 14 µM.
